Laboratory results as given in PMC7954794, “Protein context shapes the specificity of SH3 domain-mediated interactions in vivo” (Nature Communications, 2021).

Test system: growth of yeast strains under 51 stress conditions
Assay: Growth assays in 51 stress conditions (Fig. 1E-F, S2D, S5B)
Type: cell-based, Saccharomyces cerevisiae
Set-up: Sla1 strains growth distance: scale not given here
Conditions: 51 stress conditions, Fig S5B
Procedure, shortened: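 Yeast WT, SH3-deleted, KO, SH3-swapped and SH3-shuffled strains pinned in 1536 format, 12 replicates each; pregrown on YPD 2 days at 30 °C, then replicated onto 51 media at 37 °C and imaged every 2 h. Growth score = mean of per-plate median log2 colony size at 74 h.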

B1: WT¦WT¦WT (protein, UniProt P32790 1-1244, looked up)
Actin cytoskeleton-regulatory …: MTVFLGIYRAVYAYEPQTPEELAIQEDDLLYLLQKSDIDDWWTVKKRVIGSDSEEPVGLVPSTYIEEAPVLKKVRAIYDYEQVQNADEELTFHENDVFDVFDDKDADWLLVKSTVSNEFGFIPGNYVEPENGSTSKQEQAPAAAEAPAATPAAAPASAAVLPTNFLPPPQHNDRARMMQSKEDQAPDEDEEGPPPAMPARPTATTETTDATAAAVRSRTRLSYSDNDNDDEEDDYYYNSNSNNVGNHEYNTEYHSWNVTEIEGRKKKKAKLSIGNNKINFIPQKGTPHEWSIDKLVSYDNEKKHMFLEFVDPYRSLELHTGNTTTCEEIMNIIGEYKGASRDPGLREVEMASKSKKRGIVQYDFMAESQDELTIKSGDKVYILDDKKSKDWWMCQLVDSGKSGLVPAQFIEPVRDKKHTESTASGIIKSIKKNFTKSPSRSRSRSRSKSNANASWKDDELQNDVVGSAAGKRSRKSSLSSHKKNSSATKDFPNPKKSRLWVDRSGTFKVDAEFIGCAKGKIHLHKANGVKIAVAADKLSNEDLAYVEKITGFSLEKFKANDGSSSRGTDSRDSERERRRRLKEQEEKERDRRLKERELYELKKARELLDEERSRLQEKELPPIKPPRPTSTTSVPNTTSVPPAESSNNNNSSNKYDWFEFFLNCGVDVSNCQRYTINFDREQLTEDMMPDINNSMLRTLGLREGDIVRVMKHLDKKFGRENIASIPTNATGNMFSQPDGSLNVATSPETSLPQQLLPQTTSPAQTAPSTSAETDDAWTVKPASKSESNLLSKKSEFTGSMQDLLDLQPLEPKKAAASTPEPNLKDLEPVKTGGTTVPAAPVSSAPVSSAPAPLDPFKTGGNNILPLSTGFVMMPMITGGDMLPMQRTGGFVVPQTTFGMQSQVTGGILPVQKTGNGLIPISNTGGAMMPQTTFGAAATVLPLQKTGGGLIPIATTGGAQFPQTSFNVQGQQQLPTGSILPVQKTANGLISANTGVSMPTVQRTGGTMIPQTSFGVSQQLTGGAMMTQPQNTGSAMMPQTSFNAVPQITGGAMMPQTSFNALPQVTGGAMMPLQRTGGALNTFNTGGAMIPQTSFSSQAQNTGGFRPQSQFGLTLQKTGGIAPLNQNQFTGGAMNTLSTGGVLQQQQPQTMNTFNTGGVMQELQMMTTFNTGGAMQQPQMMNTFNTDGIMQQPQMMNTFNTGGAMQQPQQQALQNQPTGFGFGNGPQQSRQANIFNATASNPFGF
Q: With B1 as the molecule, how does the “Sla1 strains growth distance” value (distance to ABP1¦WT¦WT) read?
A: 32.7633

Q: And the “Sla1 strains growth distance” value (distance to ABP1¦WT¦WT, listed as WT¦WT¦WT*)?
A: 32.7344

Q: And the “Sla1 strains growth distance” value (distance to D¦D¦D)?
A: 13.1994

Q: What about the “Sla1 strains growth distance” value (distance to D¦D¦D, listed as WT¦WT¦WT*) of the same molecule?
A: 13.2336

Q: What about the “Sla1 strains growth distance” value (distance to D¦WT¦D) of the same molecule?
A: 4.481

Q: What about the “Sla1 strains growth distance” value (distance to D¦WT¦D, listed as WT¦WT¦WT*) of the same molecule?
A: 4.3276

Q: What about the “Sla1 strains growth distance” value (distance to D¦WT¦SH3-1) of the same molecule?
A: 9.537

Q: And the “Sla1 strains growth distance” value (distance to D¦WT¦SH3-1, listed as WT¦WT¦WT*)?
A: 9.613

Q: And the “Sla1 strains growth distance” value (distance to D¦WT¦SH3-2)?
A: 5.1186

Q: And the “Sla1 strains growth distance” value (distance to D¦WT¦SH3-2, listed as WT¦WT¦WT*)?
A: 4.955

Q: And the “Sla1 strains growth distance” value (distance to D¦WT¦WT)?
A: 4.59

Q: And the “Sla1 strains growth distance” value (distance to D¦WT¦WT, listed as WT¦WT¦WT*)?
A: 4.434

Q: What about the “Sla1 strains growth distance” value (distance to SH3-2¦SH3-1¦WT) of the same molecule?
A: 7.002

Q: What about the “Sla1 strains growth distance” value (distance to SH3-2¦SH3-1¦WT, listed as WT¦WT¦WT*) of the same molecule?
A: 6.862

Q: What about the “Sla1 strains growth distance” value (distance to SH3-2¦WT¦D) of the same molecule?
A: 9.252

Q: What about the “Sla1 strains growth distance” value (distance to SH3-2¦WT¦D, listed as WT¦WT¦WT*) of the same molecule?
A: 9.12

Q: And the “Sla1 strains growth distance” value (distance to SH3-2¦WT¦WT)?
A: 2.328

Q: And the “Sla1 strains growth distance” value (distance to SH3-2¦WT¦WT, listed as WT¦WT¦WT*)?
A: 2.435

Q: What about the “Sla1 strains growth distance” value (distance to SH3-3¦SH3-1¦D) of the same molecule?
A: 3.781

Q: And the “Sla1 strains growth distance” value (distance to SH3-3¦SH3-1¦D, listed as WT¦WT¦WT*)?
A: 3.648

Q: And the “Sla1 strains growth distance” value (distance to SH3-3¦SH3-1¦SH3-2)?
A: 4.4511

Q: And the “Sla1 strains growth distance” value (distance to SH3-3¦SH3-1¦SH3-2, listed as WT¦WT¦WT*)?
A: 4.2977

Q: And the “Sla1 strains growth distance” value (distance to SH3-3¦WT¦D)?
A: 11.8089

Q: And the “Sla1 strains growth distance” value (distance to SH3-3¦WT¦D, listed as WT¦WT¦WT*)?
A: 11.8591

Q: And the “Sla1 strains growth distance” value (distance to SH3-3¦WT¦SH3-1)?
A: 11.5081

Q: What about the “Sla1 strains growth distance” value (distance to SH3-3¦WT¦SH3-1, listed as WT¦WT¦WT*) of the same molecule?
A: 11.5693

Q: And the “Sla1 strains growth distance” value (distance to SH3-3¦WT¦WT)?
A: 11.7278

Q: And the “Sla1 strains growth distance” value (distance to SH3-3¦WT¦WT, listed as WT¦WT¦WT*)?
A: 11.7806

Q: What about the “Sla1 strains growth distance” value (distance to WT*¦WT¦WT) of the same molecule?
A: 0.6236

Q: What about the “Sla1 strains growth distance” value (distance to WT*¦WT¦WT, listed as WT¦WT¦WT*) of the same molecule?
A: 0.5854

Q: What about the “Sla1 strains growth distance” value (distance to WT¦ABP1¦WT) of the same molecule?
A: 11.3779

Q: And the “Sla1 strains growth distance” value (distance to WT¦ABP1¦WT, listed as WT¦WT¦WT*)?
A: 11.4192

Q: What about the “Sla1 strains growth distance” value (distance to WT¦D¦D) of the same molecule?
A: 4.458

Q: And the “Sla1 strains growth distance” value (distance to WT¦D¦D, listed as WT¦WT¦WT*)?
A: 4.315

Q: And the “Sla1 strains growth distance” value (distance to WT¦D¦SH3-2)?
A: 5.097

Q: And the “Sla1 strains growth distance” value (distance to WT¦D¦SH3-2, listed as WT¦WT¦WT*)?
A: 4.943

Q: And the “Sla1 strains growth distance” value (distance to WT¦D¦WT)?
A: 5.311

Q: And the “Sla1 strains growth distance” value (distance to WT¦D¦WT, listed as WT¦WT¦WT*)?
A: 5.149

Q: And the “Sla1 strains growth distance” value (distance to WT¦SH3-1¦D)?
A: 0.4704

Q: What about the “Sla1 strains growth distance” value (distance to WT¦SH3-1¦D, listed as WT¦WT¦WT*) of the same molecule?
A: 0.4379

Q: What about the “Sla1 strains growth distance” value (distance to WT¦SH3-1¦WT) of the same molecule?
A: 0.4878

Q: And the “Sla1 strains growth distance” value (distance to WT¦SH3-1¦WT, listed as WT¦WT¦WT*)?
A: 0.5418

Q: And the “Sla1 strains growth distance” value (distance to WT¦SH3-3¦D)?
A: 5.1001

Q: What about the “Sla1 strains growth distance” value (distance to WT¦SH3-3¦D, listed as WT¦WT¦WT*) of the same molecule?
A: 4.947

Q: And the “Sla1 strains growth distance” value (distance to WT¦SH3-3¦SH3-2)?
A: 5.331

Q: What about the “Sla1 strains growth distance” value (distance to WT¦SH3-3¦SH3-2, listed as WT¦WT¦WT*) of the same molecule?
A: 5.179

Q: What about the “Sla1 strains growth distance” value (distance to WT¦SH3-3¦WT) of the same molecule?
A: 4.703

Q: And the “Sla1 strains growth distance” value (distance to WT¦SH3-3¦WT, listed as WT¦WT¦WT*)?
A: 4.556

Q: What about the “Sla1 strains growth distance” value (distance to WT¦WT*¦WT) of the same molecule?
A: 0.917

Q: And the “Sla1 strains growth distance” value (distance to WT¦WT*¦WT, listed as WT¦WT¦WT*)?
A: 0.7508

Q: And the “Sla1 strains growth distance” value (distance to WT¦WT¦ABP1)?
A: 1.932

Q: And the “Sla1 strains growth distance” value (distance to WT¦WT¦ABP1, listed as WT¦WT¦WT*)?
A: 1.926

Q: What about the “Sla1 strains growth distance” value (distance to WT¦WT¦D) of the same molecule?
A: 0.5681

Q: What about the “Sla1 strains growth distance” value (distance to WT¦WT¦D, listed as WT¦WT¦WT*) of the same molecule?
A: 0.4359

Q: What about the “Sla1 strains growth distance” value (distance to WT¦WT¦SH3-1) of the same molecule?
A: 0.5772

Q: And the “Sla1 strains growth distance” value (distance to WT¦WT¦SH3-1, listed as WT¦WT¦WT*)?
A: 0.4107

Q: What about the “Sla1 strains growth distance” value (distance to WT¦WT¦SH3-2) of the same molecule?
A: 0.55

Q: What about the “Sla1 strains growth distance” value (distance to WT¦WT¦SH3-2, listed as WT¦WT¦WT*) of the same molecule?
A: 0.3776

Q: And the “Sla1 strains growth distance” value (distance to WT¦WT¦WT*)?
A: 0.496

Q: What about the “Sla1 strains growth distance” value (distance to WT¦WT¦WT*, listed as WT¦WT¦WT*) of the same molecule?
A: 0

Q: What about the “Sla1 strains growth distance” value (distance to WT¦WT¦WT) of the same molecule?
A: 0

Q: What about the “Sla1 strains growth distance” value (distance to WT¦WT¦WT, listed as WT¦WT¦WT*) of the same molecule?
A: 0.496
